Assay results: publication PMC9482650, “Quantitative fragmentomics allow affinity mapping of interactomes” (Nature Communications, 2022)

Columns and labels:
Experiment in all cases: holdup assay
Set-up in all cases: key: below the threshold = too weak to quantify, mostly under pKd 3.1 to 4
MAST2, Q6P0Q8 = biological target: MAST2, Q6P0Q8
PDZRN4_1, Q6ZMN7 = biological target: PDZRN4_1, Q6ZMN7
LNX1_1, Q8TBB1 = biological target: LNX1_1, Q8TBB1
DLG1_1, Q12959 = biological target: DLG1_1, Q12959
GRASP, Q7Z6J2 = biological target: GRASP, Q7Z6J2
Sequence of GRASP, Q7Z6J2 (Q7Z6J2 96-193): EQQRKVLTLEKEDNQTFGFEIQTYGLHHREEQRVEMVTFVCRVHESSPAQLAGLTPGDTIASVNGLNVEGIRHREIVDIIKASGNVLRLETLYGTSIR

DLG3_2, Q92796 = biological target: T1, DLG3_2, Q92796
T1 sequence (Q92796 221-321, limits assumed, looked up): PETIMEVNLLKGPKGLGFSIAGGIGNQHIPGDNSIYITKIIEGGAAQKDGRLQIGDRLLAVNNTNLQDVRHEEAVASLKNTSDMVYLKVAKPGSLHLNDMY

DLG2_3, Q15700 = biological target: DLG2_3, Q15700
MAGI2_2, Q86UL8 = biological target: MAGI2_2, Q86UL8
Sequence of MAGI2_2, Q86UL8 (Q86UL8 410-522): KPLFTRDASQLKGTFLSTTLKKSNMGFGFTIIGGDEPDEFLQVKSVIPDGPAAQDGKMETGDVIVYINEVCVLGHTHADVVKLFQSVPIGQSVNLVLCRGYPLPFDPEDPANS

GORASP2, Q9H8Y8 = biological target: GORASP2, Q9H8Y8
TX1BP3, O14907 = biological target: T2, TX1BP3, O14907
T2 sequence (O14907 10-122, limits assumed, looked up): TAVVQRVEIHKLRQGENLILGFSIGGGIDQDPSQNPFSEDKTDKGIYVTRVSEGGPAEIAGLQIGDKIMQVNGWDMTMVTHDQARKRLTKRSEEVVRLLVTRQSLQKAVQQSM

FRMPD1, Q5SYB0 = biological target: T3, FRMPD1, Q5SYB0
T3 sequence (Q5SYB0 52-145, limits assumed, looked up): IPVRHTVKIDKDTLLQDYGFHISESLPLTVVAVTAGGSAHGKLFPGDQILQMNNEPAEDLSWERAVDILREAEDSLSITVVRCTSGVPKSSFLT

MPDZ_12, O75970 = biological target: T4, MPDZ_12, O75970
T4 sequence (O75970 1857-1958, limits assumed, looked up): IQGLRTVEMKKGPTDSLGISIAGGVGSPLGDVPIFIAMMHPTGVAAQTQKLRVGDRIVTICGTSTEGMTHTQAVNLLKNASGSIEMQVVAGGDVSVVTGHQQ

NHERF2_2, Q15599 = biological target: NHERF2_2, Q15599
Sequence of NHERF2_2, Q15599 (Q15599 142-238): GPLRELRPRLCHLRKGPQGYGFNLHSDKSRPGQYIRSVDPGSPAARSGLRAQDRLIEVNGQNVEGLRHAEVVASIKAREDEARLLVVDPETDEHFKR

Inadl_9, Q8NI35 = biological target: Inadl_9, Q8NI35
Sequence of Inadl_9, Q8NI35 (Q8NI35 1530-1615): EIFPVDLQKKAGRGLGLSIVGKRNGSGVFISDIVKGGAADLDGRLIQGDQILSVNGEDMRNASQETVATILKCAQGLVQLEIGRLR

Inadl_1, Q8NI35 = biological target: Inadl_1, Q8NI35
Sequence of Inadl_1, Q8NI35 (Q8NI35 113-229): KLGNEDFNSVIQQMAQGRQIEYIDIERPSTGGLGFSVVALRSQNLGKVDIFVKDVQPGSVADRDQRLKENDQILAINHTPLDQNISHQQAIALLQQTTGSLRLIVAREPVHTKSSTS

Inadl_5, Q8NI35 = biological target: Inadl_5, Q8NI35
Sequence of Inadl_5, Q8NI35 (Q8NI35 673-780): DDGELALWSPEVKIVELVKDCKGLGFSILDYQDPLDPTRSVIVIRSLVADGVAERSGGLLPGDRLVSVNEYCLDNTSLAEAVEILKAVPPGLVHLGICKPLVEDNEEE

MAGI2_6, Q86UL8 = biological target: MAGI2_6, Q86UL8
Sequence of MAGI2_6, Q86UL8 (Q86UL8 1141-1229): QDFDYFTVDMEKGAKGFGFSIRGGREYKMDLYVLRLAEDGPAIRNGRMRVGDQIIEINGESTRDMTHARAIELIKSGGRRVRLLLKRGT

PCLO, Q9Y6V0 = biological target: T5, PCLO, Q9Y6V0
T5 sequence (Q9Y6V0 4491-4600, limits assumed, looked up): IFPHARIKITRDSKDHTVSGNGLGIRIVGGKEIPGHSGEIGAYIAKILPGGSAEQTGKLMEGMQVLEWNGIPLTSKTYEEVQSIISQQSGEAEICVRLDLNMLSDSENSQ

MAGI2_3, Q86UL8 = biological target: MAGI2_3, Q86UL8
Sequence of MAGI2_3, Q86UL8 (Q86UL8 600-682): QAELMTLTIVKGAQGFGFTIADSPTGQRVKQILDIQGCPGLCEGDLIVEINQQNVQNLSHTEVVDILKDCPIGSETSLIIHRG

Inadl_10, Q8NI35 = biological target: Inadl_10, Q8NI35
Sequence of Inadl_10, Q8NI35 (Q8NI35 1673-1763): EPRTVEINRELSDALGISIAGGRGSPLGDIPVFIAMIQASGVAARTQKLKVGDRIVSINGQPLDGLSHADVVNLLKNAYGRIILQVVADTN

GIPC2, Q8TF65 = biological target: GIPC2, Q8TF65
Sequence of GIPC2, Q8TF65 (Q8TF65 112-203): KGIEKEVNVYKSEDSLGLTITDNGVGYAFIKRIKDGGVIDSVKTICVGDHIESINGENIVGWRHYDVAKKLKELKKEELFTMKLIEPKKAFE

NHERF4_4, Q86UT5 = biological target: NHERF4_4, Q86UT5
Sequence of NHERF4_4, Q86UT5 (Q86UT5 464-550): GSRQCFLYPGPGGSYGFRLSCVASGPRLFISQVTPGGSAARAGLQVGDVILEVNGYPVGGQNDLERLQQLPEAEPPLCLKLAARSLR

DLG5_1, Q8TDM6 = biological target: DLG5_1, Q8TDM6
Sequence of DLG5_1, Q8TDM6 (Q8TDM6 617-713): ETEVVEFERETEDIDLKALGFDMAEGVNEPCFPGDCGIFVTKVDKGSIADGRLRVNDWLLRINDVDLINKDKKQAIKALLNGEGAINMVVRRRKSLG

LIN7A, O14910 = biological target: T6, LIN7A, O14910
T6 sequence (O14910 103-200, limits assumed, looked up): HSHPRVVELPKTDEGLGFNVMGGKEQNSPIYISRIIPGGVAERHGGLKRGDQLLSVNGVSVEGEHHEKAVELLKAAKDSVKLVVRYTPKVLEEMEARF

GRID2IP_1, A4D2P6 = biological target: GRID2IP_1, A4D2P6
Sequence of GRID2IP_1, A4D2P6 (A4D2P6 1-87): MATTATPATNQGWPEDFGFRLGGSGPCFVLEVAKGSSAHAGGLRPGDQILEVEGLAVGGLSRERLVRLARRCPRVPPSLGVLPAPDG

PTPN13_1, Q12923 = biological target: T7, PTPN13_1, Q12923
T7 sequence (Q12923 1088-1188, limits assumed, looked up): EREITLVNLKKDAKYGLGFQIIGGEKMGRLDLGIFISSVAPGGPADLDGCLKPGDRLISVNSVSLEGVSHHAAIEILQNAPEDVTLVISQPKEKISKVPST

PTPN3, P26045 = biological target: PTPN3, P26045
Sequence of PTPN3, P26045 (P26045 505-587): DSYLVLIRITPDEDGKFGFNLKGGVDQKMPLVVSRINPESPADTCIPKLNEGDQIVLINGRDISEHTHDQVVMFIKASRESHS

SHANK1, Q9Y566 = biological target: T8, SHANK1, Q9Y566
T8 sequence (Q9Y566 658-767, limits assumed, looked up): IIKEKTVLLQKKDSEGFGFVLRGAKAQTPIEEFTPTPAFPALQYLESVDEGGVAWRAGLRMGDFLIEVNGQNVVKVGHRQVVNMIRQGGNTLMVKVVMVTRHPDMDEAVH

ARHGEF11, O15085 = biological target: T9, ARHGEF11, O15085
T9 sequence (O15085 42-136, limits assumed, looked up): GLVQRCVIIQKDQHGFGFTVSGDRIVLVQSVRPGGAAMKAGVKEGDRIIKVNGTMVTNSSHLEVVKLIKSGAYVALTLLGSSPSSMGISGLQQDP

[1] = plain residues with an end cap or a label only (N-terminal biotin on a linker: ado-ado)
[2] = modified: phospho on T at position -2 from the C-terminal residue

Measured: pKd

Sequence of MAST2, Q6P0Q8 (Q6P0Q8 1099-1202): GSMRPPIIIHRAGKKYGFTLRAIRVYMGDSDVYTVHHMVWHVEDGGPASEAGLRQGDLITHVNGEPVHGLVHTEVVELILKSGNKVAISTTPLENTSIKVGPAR
Sequence of LNX1_1, Q8TBB1 (Q8TBB1 261-371): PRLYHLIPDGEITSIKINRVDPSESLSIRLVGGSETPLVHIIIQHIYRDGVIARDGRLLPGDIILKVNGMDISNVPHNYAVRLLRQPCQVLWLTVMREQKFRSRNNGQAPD
Sequence of PDZRN4_1, Q6ZMN7 (Q6ZMN7 213-318): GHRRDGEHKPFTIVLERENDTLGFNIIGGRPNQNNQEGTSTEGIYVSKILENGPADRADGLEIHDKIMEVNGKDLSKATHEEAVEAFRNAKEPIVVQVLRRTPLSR

QPCFNKLFPL [LPXN, O60711]
4: GORASP2, Q9H8Y8; [1]
below the threshold: PDZRN4_1, Q6ZMN7; [1] | LNX1_1, Q8TBB1; [1] | DLG1_1, Q12959; [1] | GRASP, Q7Z6J2; [1] | DLG3_2, Q92796; [1] | DLG2_3, Q15700; [1] | MAGI2_2, Q86UL8; [1] | TX1BP3, O14907; [1] | FRMPD1, Q5SYB0; [1] | MPDZ_12, O75970; [1] | NHERF2_2, Q15599; [1] | Inadl_9, Q8NI35; [1] | Inadl_1, Q8NI35; [1] | Inadl_5, Q8NI35; [1] | MAGI2_6, Q86UL8; [1] | PCLO, Q9Y6V0; [1] | MAGI2_3, Q86UL8; [1] | Inadl_10, Q8NI35; [1] | GIPC2, Q8TF65; [1] | NHERF4_4, Q86UT5; [1] | DLG5_1, Q8TDM6; [1] | LIN7A, O14910; [1] | GRID2IP_1, A4D2P6; [1] | PTPN13_1, Q12923; [1] | PTPN3, P26045; [1] | SHANK1, Q9Y566; [1] | ARHGEF11, O15085; [1]
4.75: MAST2, Q6P0Q8; [1]

RLQRRRETQV [HPV18-E6_-2P, P06463]
below the threshold: MAST2, Q6P0Q8; [2] | PDZRN4_1, Q6ZMN7; [2] | LNX1_1, Q8TBB1; [2] | DLG1_1, Q12959; [2] | GRASP, Q7Z6J2; [2] | DLG3_2, Q92796; [2] | MAGI2_2, Q86UL8; [2] | TX1BP3, O14907; [2] | FRMPD1, Q5SYB0; [2] | MPDZ_12, O75970; [2] | NHERF2_2, Q15599; [2] | Inadl_9, Q8NI35; [2] | Inadl_1, Q8NI35; [2] | Inadl_5, Q8NI35; [2] | MAGI2_6, Q86UL8; [2] | PCLO, Q9Y6V0; [2] | MAGI2_3, Q86UL8; [2] | Inadl_10, Q8NI35; [2] | GIPC2, Q8TF65; [2] | NHERF4_4, Q86UT5; [2] | DLG5_1, Q8TDM6; [2] | LIN7A, O14910; [2] | GRID2IP_1, A4D2P6; [2] | PTPN13_1, Q12923; [2] | PTPN3, P26045; [2] | SHANK1, Q9Y566; [2] | ARHGEF11, O15085; [2]
4.13: GORASP2, Q9H8Y8; [2]
3.88: DLG2_3, Q15700; [2]

PRISRSQSEL [CCDC134, Q9H6E4]
3.98: DLG3_2, Q92796; [1]
3.85: MAGI2_2, Q86UL8; [1]
3.88: ARHGEF11, O15085; [1]
3.52: TX1BP3, O14907; [1] | LIN7A, O14910; [1]
3.67: LNX1_1, Q8TBB1; [1]
4.22: PTPN3, P26045; [1]
4.31: GRASP, Q7Z6J2; [1]
3.63: DLG2_3, Q15700; [1]
5.76: MAST2, Q6P0Q8; [1]
below the threshold: PDZRN4_1, Q6ZMN7; [1] | DLG1_1, Q12959; [1] | GORASP2, Q9H8Y8; [1] | FRMPD1, Q5SYB0; [1] | MPDZ_12, O75970; [1] | NHERF2_2, Q15599; [1] | Inadl_9, Q8NI35; [1] | Inadl_1, Q8NI35; [1] | Inadl_5, Q8NI35; [1] | MAGI2_6, Q86UL8; [1] | PCLO, Q9Y6V0; [1] | MAGI2_3, Q86UL8; [1] | Inadl_10, Q8NI35; [1] | GIPC2, Q8TF65; [1] | NHERF4_4, Q86UT5; [1] | DLG5_1, Q8TDM6; [1] | GRID2IP_1, A4D2P6; [1] | PTPN13_1, Q12923; [1] | SHANK1, Q9Y566; [1]
